Data set [1] has as its target T1, DNA polymerase IV (Dpo4) (Sulfolobus solfataricus, UniProt Q97W02 1-352).
T1 sequence: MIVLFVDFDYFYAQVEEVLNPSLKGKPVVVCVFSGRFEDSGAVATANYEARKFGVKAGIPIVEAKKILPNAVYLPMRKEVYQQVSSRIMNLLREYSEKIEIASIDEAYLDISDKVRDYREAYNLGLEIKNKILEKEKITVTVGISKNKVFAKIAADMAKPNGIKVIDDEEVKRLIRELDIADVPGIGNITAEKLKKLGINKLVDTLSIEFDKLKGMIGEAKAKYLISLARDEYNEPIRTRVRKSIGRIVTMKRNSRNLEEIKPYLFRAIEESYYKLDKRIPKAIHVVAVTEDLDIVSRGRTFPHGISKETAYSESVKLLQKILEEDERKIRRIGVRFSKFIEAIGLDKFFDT
The data set is described as follows: EMSA.

For data set [2], the target named is T1, DNA polymerase IV (Dpo4). Put plainly: EMSA. The source holds these as a separate data set.

Consider 2 molecules from PMC4582013.

Where two headings read alike, the source gives them in different places.

B1: 21/26-mer-dG1,8 (dsDNA)
DNA 1: AACGACGGCCAGTGAATTCGC
DNA 2: CCCGCGCGAATTCACTGGCCGTCGTT
modifications: template G6 (from 5') is dG1,8 = 8-(deoxyguanosin-N2-yl)-1-aminopyrene; lesion paired with primer 3' end
For B1, the affinity with DNA polymerase IV (Dpo4) [1], expressed as Kd, was 27 ± 3 nM.

B2: 20/26-mer-dG1,8 (dsDNA)
DNA 1: AACGACGGCCAGTGAATTCG
DNA 2: CCCGCGCGAATTCACTGGCCGTCGTT
modifications: template G6 (from 5') is dG1,8 = 8-(deoxyguanosin-N2-yl)-1-aminopyrene; lesion is the templating base
In the data set with DNA polymerase IV (Dpo4) [2], B2 registered a Kd of 9 ± 2 nM.
